The Immune Epitope Database (IEDB)

Tests used:
HLA-A*24:02 = assay: IEDB peptide-MHC binding, purified MHC/competitive/fluorescence; filed as Kd, often an IC50 or EC50 that approximates it; ≥ and ≤ were set here for values at or beyond the usual limits of such assays; conditions: source organism: Pseudomonas aeruginosa UCBPP-PA14
HLA-A*03:01 = assay: as above
HLA-B*15:01 [1] = assay: as above
HLA-A*11:01 = assay: as above; conditions: source organism: Pseudomonas aeruginosa UCBPP-PA14
HLA-A*30:01 = assay: as above; conditions: source organism: Pseudomonas aeruginosa UCBPP-PA14
HLA-B*58:01 = assay: as above; conditions: source organism: Pseudomonas aeruginosa UCBPP-PA14
HLA-B*27:05 = assay: as above; conditions: source organism: Pseudomonas aeruginosa UCBPP-PA14
HLA-A*01:01 = assay: as above; conditions: source organism: Pseudomonas aeruginosa UCBPP-PA14
HLA-A*69:01 = assay: as above
HLA-A*26:01 = assay: as above
HLA-B*07:02 [2] = assay: as above; conditions: source organism: Pseudomonas aeruginosa UCBPP-PA14
HLA-B*08:01 = assay: as above; conditions: source organism: Pseudomonas aeruginosa UCBPP-PA14
HLA-A*31:01 = assay: as above; conditions: source organism: Pseudomonas aeruginosa UCBPP-PA14
HLA-B*40:01 = assay: as above; conditions: source organism: Pseudomonas aeruginosa UCBPP-PA14
HLA-A*02:01 = assay: as above
HLA-A*02:19 = assay: as above
HLA-A*68:02 = assay: as above
HLA-A*02:12 = assay: as above
HLA-A*02:03 = assay: as above
HLA-B*27:03 = assay: as above
HLA-B*46:01 [3] = assay: as above
HLA-A*29:02 = assay: as above
HLA-A*02:16 = assay: as above
HLA-B*18:01 = assay: as above
HLA-B*57:01 = assay: as above
HLA-A*02:11 = assay: as above
HLA-B*39:01 = assay: as above
HLA-B*51:01 = assay: as above
HLA-A*24:03 = assay: as above
HLA-A*23:01 = assay: as above
HLA-B*35:01 = assay: IEDB peptide-MHC binding, purified MHC/direct/fluorescence; filed as Kd, often an IC50 or EC50 that approximates it; ≥ and ≤ were set here for values at or beyond the usual limits of such assays; conditions: source organism: Escherichia coli O157:H7 str. EC869
HLA-B*15:01 [4] = assay: as above; conditions: source organism: Escherichia coli O157:H7
HLA-B*15:02 = assay: as above; conditions: source organism: Escherichia coli O157:H7 str. EC869
HLA-B*46:01 [5] = assay: as above; conditions: source organism: Escherichia coli O157:H7
HLA-B*07:02 [6] = assay: as above; conditions: source organism: Escherichia coli O157:H7 str. EC869
HLA-B*15:17 = assay: IEDB peptide-MHC binding, purified MHC/competitive/fluorescence; filed as Kd, often an IC50 or EC50 that approximates it; ≥ and ≤ were set here for values at or beyond the usual limits of such assays; conditions: source organism: Cryptosporidium parvum Iowa II
[7] = source organism: Pseudomonas aeruginosa UCBPP-PA14
[8] = source organism: Giardia lamblia ATCC 50803
[9] = source organism: Entamoeba dispar SAW760
[10] = source organism: Cryptosporidium parvum Iowa II

Measured: Kd

AVFDGCVVY
0.291 µM: HLA-A*03:01; [7]
1.12 µM: HLA-B*58:01
≥ 20 µM: HLA-A*24:02 | HLA-A*30:01 | HLA-B*27:05 | HLA-A*01:01 | HLA-A*69:01; [7] | HLA-A*26:01; [7] | HLA-B*07:02 [2] | HLA-B*08:01 | HLA-B*40:01
1.26 µM: HLA-A*31:01
0.0306 µM: HLA-A*11:01
0.11 µM: HLA-B*15:01 [1]; [7]

ELLDHLLLF
0.98 µM: HLA-A*02:19; [8]
≥ 20 µM: HLA-A*02:01; [8] | HLA-A*68:02; [8] | HLA-A*03:01; [8] | HLA-A*02:12; [8] | HLA-B*15:01 [1]; [8] | HLA-A*02:03; [8] | HLA-B*27:03; [8] | HLA-B*46:01 [3]; [8] | HLA-A*02:16; [8] | HLA-B*18:01; [8] | HLA-B*57:01; [8] | HLA-A*02:11; [8] | HLA-B*39:01; [8] | HLA-B*51:01; [8]
0.0161 µM: HLA-A*29:02; [8]

KGFFRVFKK
0.189 µM: HLA-A*29:02; [9]
0.0049 µM: HLA-A*03:01; [9]
≥ 20 µM: HLA-A*02:01; [9] | HLA-A*02:19; [9] | HLA-A*68:02; [9] | HLA-A*24:03; [9] | HLA-A*02:12; [9] | HLA-B*15:01 [1]; [9] | HLA-A*02:03; [9] | HLA-A*23:01; [9] | HLA-B*46:01 [3]; [9] | HLA-A*69:01; [9] | HLA-A*02:16; [9] | HLA-B*18:01; [9] | HLA-A*26:01; [9] | HLA-B*57:01; [9] | HLA-A*02:11; [9] | HLA-B*39:01; [9] | HLA-B*51:01; [9]

NIAAPYLPF
0.013 µM: HLA-B*15:02
0.01 µM: HLA-B*35:01
0.107 µM: HLA-B*15:01 [4]
2.21 µM: HLA-B*07:02 [6]
≥ 20 µM: HLA-B*46:01 [5]

RLKHIFLIF
≥ 20 µM: HLA-A*02:01; [10] | HLA-A*02:19; [10] | HLA-A*68:02; [10] | HLA-A*24:03; [10] | HLA-A*03:01; [10] | HLA-A*02:12; [10] | HLA-A*02:03; [10] | HLA-A*23:01; [10] | HLA-B*27:03; [10] | HLA-B*15:17 | HLA-B*46:01 [3]; [10] | HLA-A*29:02; [10] | HLA-A*69:01; [10] | HLA-A*02:16; [10] | HLA-B*18:01; [10] | HLA-A*26:01; [10] | HLA-B*57:01; [10] | HLA-A*02:11; [10] | HLA-B*39:01; [10] | HLA-B*51:01; [10]
